# Laboratory results: PMC6315623
# Molecular target: BS69 MYND domain (residues 427-602) fused to a B42 activation domain (UniProt Q15326)
# Experiment: yeast two-hybrid (β-galactosidase activity)
# Conditions: n = 3; parent: est. 1; read off a plot
# Chain of BS69 MYND domain (residues 427-602) fused to a B42 activation domain (Q15326 427-602): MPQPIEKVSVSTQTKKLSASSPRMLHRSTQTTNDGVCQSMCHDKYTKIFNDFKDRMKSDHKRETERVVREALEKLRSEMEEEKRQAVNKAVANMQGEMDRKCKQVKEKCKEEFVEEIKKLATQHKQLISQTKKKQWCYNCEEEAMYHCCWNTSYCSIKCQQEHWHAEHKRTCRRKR
row,Substance,response (% of HAdV-A12 positive control)
1,"HAdV-D9 E1A PXLXP motif fragment, wildtype, LexA DBD fusion T5V",1
2,"HAdV-D9 E1A PXLXP motif fragment, wildtype, LexA DBD fusion T3P",59
3,"HAdV-D9 E1A PXLXP motif fragment, wildtype, LexA DBD fusion I9V",1
4,"HAdV-D9 E1A PXLXP motif fragment, wildtype, LexA DBD fusion P10C",1.5
